Patent publication US4397951A, “Elastase-containing composition permitting elastase to be absorbed in increased amount” (Eisai Co., Ltd., priority 1981, dated 1983)
Like-named read-outs stand apart in the source and are kept apart here.

Key:
[1] = Serum elastase level, Tmax, Cmax, AUC after intraduodenal aqueous solution (Effect Example 3); assay type: in vivo, beagles; details: intraduodenal 5 ml solution, 55.2 mg elastase (326 EL. U/mg)
Procedure: An aqueous control solution was prepared by adding 55.2 mg of elastase (326 EL. U/mg) alone to 5 ml of water.
Four beagles (weighing 10.5-14.0 kg) were divided into 2 aliquot groups, each being 2 subjects. […] The subjects were fasted overnight, and the abdomen was cut open along the median line under anesthesia in the following morning. Then, 5 ml of the respective sample and control solutions were introduced into duodendum using injection tube, followed by immediate suturing. 3 ml of the blood were respectively taken prior to the administration of the solutions, and at the elapsed times of 1, 2, 4, 6, 8, 10, 12 and 24 hours after the administration of the solutions. About 1 ml of serum was respectively separated by means of centrifuge.
Serum elastase levels were measured in accordance with "Enzyme-immunological method", as described in the effect example 1.

[2] = statement; cited from earlier work
[3] = background statement; cited from earlier work
elastin = assay: Elastase activity (decomposition of insoluble elastin); assay type: biochemical; details: pH 8.8, 37°C, 30 min, elastin substrate
Procedure: In the present invention, the compounding ratio of pure elastase to sucrose fatty acid ester is specified in terms of weight ratio for convenience' sake. […] That is, at present available pure elastase has an activity of 340 elastase activity units (abbreviated as 340 EL. U) per mg measured by the method to be described hereinafter, and therefore the composition of the present invention is also defined as an elastase-containing composition containing 0.5 to 50 mg of sucrose fatty acid ester per 340 EL. U of elastase. More specifically, the composition of the present invention is an elastase-containing composition which contains 0.5 to 50 mg of sucrose fatty acid ester per 340 EL. U (measured by the measuring method described hereinafter) of elastase.
An elastase-containing sample is accurately weighed, and dissolved in a diluted Palitzsch buffer solution to make a 250 ml elastase enzyme solution. 1 ml of the elastase enzyme solution is added to 4 ml of a substrate solution, and incubation is conducted for 30 minutes at 37°±0.1° C. with shaking at 100 strokes/min. […]
The amount of soluble elastin produced per minute as a result of decomposition of insoluble elastin under the above-described measuring conditions is determined as an amount of tyrosine (μg) by which EL. […]

[4] = intraintestinal, rats, cited from earlier work

Substance: Control Solution: 55.2 mg of elastase (326 EL. U/mg) alone in 5 ml of water
- AUC0-24hr [1]: 125.84 ng·h/mL
- AUC0-24hr ([1]; 1440 min): 307.18 ng·h/mL

Substance: elastase: decomposing enzyme for elastin, extracted from porcine pancreas; polypeptide having a molecular weight of 25,900
- stability to gastric acid [2]: unstable to gastric acid
- effect on elasticity of blood vessel [3]: increase elasticity of blood vessel
- effect on serum lipid level [3]: normalize serum lipid level
- elastase activity (elastin): 340 EL. U per mg

Substance: ^131 I-elastase: 131I-labelled elastase dissolved in a physiological saline solution
- amount absorbed (blood vessel route plus lymphatic vessel route) ([4]; 1 mg in physiological saline): 0.15%
- amount absorbed (blood vessel route plus lymphatic vessel route) ([4]; 5 mg in physiological saline): 0.05%
